Several values for one entry are separate records, joined by “and”; a condition that tells them apart may be missing. Equal entries are not always repeated. Non-standard residues stand in square brackets, D forms with d. No end group written: not given here. pY = N[C@@H](Cc1ccc(OP(=O)(O)O)cc1)C(=O)O; Rhodamine = not defined here
Legend:
Assay in all cases: peptide or protein array; SH2/PTB proteins spotted on aldehyde slides, rhodamine peptide titrated in buffer B (20 mM HEPES, 100 mM KCl, 0.1% Tween-20, 5 mM DTT, pH 7.8), 1 h at room temperature; replicate assays
Details in all cases: both partners purified
NCK1 SH2 domain = target: T1, NCK1 SH2 domain (human, UniProt P16333 282-376)
T1 construct: NCK1, human; source: bacterial expression, purified

SOCS5 SH2 domain = target: T2, SOCS5 SH2 domain (human, UniProt O75159 381-476)
T2 construct: SOCS5, human; source: bacterial expression, purified
T2 sequence (looked up): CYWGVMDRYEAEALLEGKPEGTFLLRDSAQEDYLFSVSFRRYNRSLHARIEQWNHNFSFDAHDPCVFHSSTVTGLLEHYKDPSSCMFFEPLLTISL

PTPN6 tandem SH2 domains = target: T3, PTPN6 tandem SH2 domains (human)
T3 construct: PTPN6, human; also called PTPN6-NC; source: bacterial expression, purified

ABL2 SH2 domain = target: T4, ABL2 SH2 domain (human, UniProt P42684 173-263)
T4 construct: ABL2, human; source: bacterial expression, purified
T4 sequence (looked up): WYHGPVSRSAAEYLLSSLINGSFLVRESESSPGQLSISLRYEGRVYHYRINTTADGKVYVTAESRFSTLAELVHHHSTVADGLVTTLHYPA

DAPP1 SH2 domain = target: T5, DAPP1 SH2 domain (human, UniProt Q9UN19 35-129)
T5 construct: DAPP1, human; source: bacterial expression, purified
T5 sequence (looked up): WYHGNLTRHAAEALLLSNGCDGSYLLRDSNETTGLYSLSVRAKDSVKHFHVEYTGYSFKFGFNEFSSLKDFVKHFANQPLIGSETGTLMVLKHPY

[1] = target: T6, RASA1 C-terminal SH2 domain (human)
T6 construct: RASA1, human; source: bacterial expression, purified
T6 sequence (P20936 whole entry, looked up): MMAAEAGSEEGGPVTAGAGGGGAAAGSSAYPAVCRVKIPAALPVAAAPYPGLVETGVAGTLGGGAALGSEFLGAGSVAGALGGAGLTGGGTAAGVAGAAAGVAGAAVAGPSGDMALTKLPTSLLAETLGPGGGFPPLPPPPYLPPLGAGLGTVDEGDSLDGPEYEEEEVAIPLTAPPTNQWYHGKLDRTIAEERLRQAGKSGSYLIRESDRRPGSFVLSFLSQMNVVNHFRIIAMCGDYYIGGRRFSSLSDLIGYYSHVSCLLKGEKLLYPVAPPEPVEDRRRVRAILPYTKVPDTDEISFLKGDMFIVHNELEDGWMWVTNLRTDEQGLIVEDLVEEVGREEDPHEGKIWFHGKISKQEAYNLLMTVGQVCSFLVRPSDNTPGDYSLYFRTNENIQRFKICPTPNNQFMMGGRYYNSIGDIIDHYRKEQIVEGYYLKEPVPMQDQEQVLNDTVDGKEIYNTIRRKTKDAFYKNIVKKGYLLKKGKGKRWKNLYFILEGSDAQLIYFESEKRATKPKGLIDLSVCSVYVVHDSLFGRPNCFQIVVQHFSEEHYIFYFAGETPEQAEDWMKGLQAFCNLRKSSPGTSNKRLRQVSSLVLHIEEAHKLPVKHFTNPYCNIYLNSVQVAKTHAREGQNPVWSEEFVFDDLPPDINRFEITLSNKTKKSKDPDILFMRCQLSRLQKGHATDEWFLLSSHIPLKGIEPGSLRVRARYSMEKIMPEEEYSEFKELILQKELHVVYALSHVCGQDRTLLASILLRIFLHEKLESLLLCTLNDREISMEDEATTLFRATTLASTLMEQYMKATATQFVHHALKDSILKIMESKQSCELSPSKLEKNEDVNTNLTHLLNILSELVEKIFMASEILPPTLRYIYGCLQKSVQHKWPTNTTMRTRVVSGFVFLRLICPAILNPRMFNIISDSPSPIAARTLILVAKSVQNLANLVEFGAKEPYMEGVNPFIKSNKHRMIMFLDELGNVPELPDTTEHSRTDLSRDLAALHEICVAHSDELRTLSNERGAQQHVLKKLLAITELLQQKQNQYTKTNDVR

[2] = target: T7, PTPN11 tandem SH2 domains (human)
T7 construct: PTPN11, human; also called PTPN11-NC; source: bacterial expression, purified
T7 sequence (Q06124 whole entry, looked up): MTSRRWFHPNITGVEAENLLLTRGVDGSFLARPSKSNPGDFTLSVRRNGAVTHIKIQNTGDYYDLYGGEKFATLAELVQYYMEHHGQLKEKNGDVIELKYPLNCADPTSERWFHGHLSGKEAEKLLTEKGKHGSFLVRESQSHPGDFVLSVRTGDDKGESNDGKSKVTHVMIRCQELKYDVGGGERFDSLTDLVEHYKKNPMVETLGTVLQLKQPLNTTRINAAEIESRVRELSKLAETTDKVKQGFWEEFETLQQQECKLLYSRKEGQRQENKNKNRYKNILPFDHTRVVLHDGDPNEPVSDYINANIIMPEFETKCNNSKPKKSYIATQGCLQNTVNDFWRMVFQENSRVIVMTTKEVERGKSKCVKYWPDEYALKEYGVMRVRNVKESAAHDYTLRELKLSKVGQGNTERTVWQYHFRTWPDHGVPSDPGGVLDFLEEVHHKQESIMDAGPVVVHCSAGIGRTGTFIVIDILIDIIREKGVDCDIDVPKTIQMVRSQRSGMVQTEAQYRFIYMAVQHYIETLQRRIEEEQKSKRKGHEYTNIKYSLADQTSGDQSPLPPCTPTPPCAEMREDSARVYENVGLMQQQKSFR

Rhodamine-ETDG[pY]VAPLTCSD (reading uncertain) [ErbB2 pY1127 phosphopeptide, rhodamine-labelled, for protein microarrays]
Kd (NCK1 SH2 domain): 6850 nM
Kd (SOCS5 SH2 domain): 698 nM
Kd (PTPN6 tandem SH2 domains): 1620 nM
Kd (ABL2 SH2 domain): 17 nM and 14.6 nM
Kd (DAPP1 SH2 domain): 2670 nM
Kd [1]: 1210 nM
Kd [2]: 1150 nM and 1530 nM

Source: article PMC3433420, “Comprehensive Binary Interaction Mapping of SH2 Domains via Fluorescence Polarization Reveals Novel Functional Diversification of ErbB Receptors” (PLoS ONE, 2012)
